Assay results reported in US20250163162A1.
One block for each binder: values may come before it.

Molecular target: T1, IL10Rα and IL2Rγ on human primary cells (CD8 T cells, CD4 T cells, monocytes) (human) (UniProt Q13651)
T1 sequence (looked up) 1: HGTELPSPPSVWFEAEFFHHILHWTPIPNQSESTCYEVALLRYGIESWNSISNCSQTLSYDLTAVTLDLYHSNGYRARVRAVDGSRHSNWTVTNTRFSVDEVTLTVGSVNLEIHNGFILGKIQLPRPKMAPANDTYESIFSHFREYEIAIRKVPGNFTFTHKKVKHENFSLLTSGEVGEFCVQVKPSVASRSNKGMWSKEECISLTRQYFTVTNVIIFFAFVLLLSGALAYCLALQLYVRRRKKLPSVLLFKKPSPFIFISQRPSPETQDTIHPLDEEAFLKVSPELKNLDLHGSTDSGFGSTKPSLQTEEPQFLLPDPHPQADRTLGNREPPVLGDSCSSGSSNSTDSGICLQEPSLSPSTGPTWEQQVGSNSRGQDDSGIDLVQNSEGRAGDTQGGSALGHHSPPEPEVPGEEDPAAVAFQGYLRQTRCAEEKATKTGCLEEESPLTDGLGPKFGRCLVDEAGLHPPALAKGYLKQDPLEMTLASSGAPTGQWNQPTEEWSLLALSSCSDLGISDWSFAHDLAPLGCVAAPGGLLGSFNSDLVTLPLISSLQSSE
T1 sequence (looked up) 2: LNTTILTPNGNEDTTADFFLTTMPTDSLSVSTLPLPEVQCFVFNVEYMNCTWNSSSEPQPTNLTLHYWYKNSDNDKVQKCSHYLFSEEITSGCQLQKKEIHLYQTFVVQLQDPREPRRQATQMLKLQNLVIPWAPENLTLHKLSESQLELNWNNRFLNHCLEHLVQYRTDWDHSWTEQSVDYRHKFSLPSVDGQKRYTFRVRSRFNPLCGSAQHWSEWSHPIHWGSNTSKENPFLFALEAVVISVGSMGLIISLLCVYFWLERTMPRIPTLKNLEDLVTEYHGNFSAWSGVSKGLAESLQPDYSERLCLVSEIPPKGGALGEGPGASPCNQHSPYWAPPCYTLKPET
Experiment: cell-based or functional assay

B1: hIL10Ra_VHH14-hIL2Rg_VHH19, linker GGGSGGGS, tag his (bispecific antibody, not shown: small tags and cut ends)
chain: QVQLQESGGGSVQAGGSLRLSCGASGYTYSSYCMGWFRQVPGKEREGVAVIDSDGSTSYADSVKGRFTISKDNGKNTLYLQMNSLKPEDTAMYYCAADLGHYRPPCGVLYLGMDYWGKGTQVTVSSGGGSGGGSQVQLQESGGGSVQAGGSLRLSCTASGFTFDDREMNWYRQAPGNECELVSTISSDGSTYYADSVKGRFTISQDNAKNTVYLQMDSVKPEDTAVYYCAADFMIAIQAPGAGCWGQGTQVTVSS
- pSTAT3 (MFI) in CD4 T cells at 0.0001 µM: 10700 MFI
- pSTAT3 (MFI) in CD4 T cells at 0.0013 µM: 12000 MFI
- pSTAT3 (MFI) in CD4 T cells at 0.01 µM: 9550 MFI
- pSTAT3 (MFI) in CD4 T cells at 0.1 µM: 11300 MFI
- pSTAT3 (MFI) in CD4 T cells at 1 µM: 12700 MFI
- pSTAT3 (MFI) in CD4 T cells at 10 µM: 13200 MFI
- pSTAT3 (MFI) in CD4 T cells at 100 µM: 11600 MFI
- pSTAT3 (MFI) in CD8 T cells at 0.0001 µM: 7060 MFI
- pSTAT3 (MFI) in CD8 T cells at 0.001 µM: 7520 MFI
- pSTAT3 (MFI) in CD8 T cells at 0.01 µM: 6330 MFI
- pSTAT3 (MFI) in CD8 T cells at 0.1 µM: 7070 MFI
- pSTAT3 (MFI) in CD8 T cells at 1 µM: 7870 MFI
- pSTAT3 (MFI) in CD8 T cells at 10 µM: 8430 MFI
- pSTAT3 (MFI) in CD8 T cells at 100 µM: 7970 MFI
- pSTAT3 (MFI) in monocytes at 0.0001 µM: 4670 MFI
- pSTAT3 (MFI) in monocytes at 0.001 µM: 4820 MFI
- pSTAT3 (MFI) in monocytes at 0.01 µM: 4360 MFI
- pSTAT3 (MFI) in monocytes at 0.1 µM: 4420 MFI
- pSTAT3 (MFI) in monocytes at 1 µM: 4760 MFI
- pSTAT3 (MFI) in monocytes at 10 µM: 4880 MFI
- pSTAT3 (MFI) in monocytes at 100 µM: 4620 MFI

B4: hIL10Ra_VHH14-hIL2Rg_VHH19, linker GGGS, tag his (bispecific antibody, not shown: small tags and cut ends)
chain: QVQLQESGGGSVQAGGSLRLSCGASGYTYSSYCMGWFRQVPGKEREGVAVIDSDGSTSYADSVKGRFTISKDNGKNTLYLQMNSLKPEDTAMYYCAADLGHYRPPCGVLYLGMDYWGKGTQVTVSSGGGSQVQLQESGGGSVQAGGSLRLSCTASGFTFDDREMNWYRQAPGNECELVSTISSDGSTYYADSVKGRFTISQDNAKNTVYLQMDSVKPEDTAVYYCAADFMIAIQAPGAGCWGQGTQVTVSS
- pSTAT3 (MFI) in CD4 T cells at 0.0001 µM: 11900 MFI
- pSTAT3 (MFI) in CD4 T cells at 0.001 µM: 12100 MFI
- pSTAT3 (MFI) in CD4 T cells at 0.01 µM: 11700 MFI
- pSTAT3 (MFI) in CD4 T cells at 0.1 µM: 9670 MFI
- pSTAT3 (MFI) in CD4 T cells at 1 µM: 9590 MFI
- pSTAT3 (MFI) in CD4 T cells at 10 µM: 11400 MFI
- pSTAT3 (MFI) in CD4 T cells at 100 µM: 14700 MFI
- pSTAT3 (MFI) in CD8 T cells at 0.0001 µM: 7210 MFI
- pSTAT3 (MFI) in CD8 T cells at 0.001 µM: 7460 MFI
- pSTAT3 (MFI) in CD8 T cells at 0.01 µM: 7200 MFI
- pSTAT3 (MFI) in CD8 T cells at 0.1 µM: 6580 MFI
- pSTAT3 (MFI) in CD8 T cells at 1 µM: 6500 MFI
- pSTAT3 (MFI) in CD8 T cells at 10 µM: 7930 MFI
- pSTAT3 (MFI) in CD8 T cells at 100 µM: 9970 MFI
- pSTAT3 (MFI) in monocytes at 0.0001 µM: 4150 MFI
- pSTAT3 (MFI) in monocytes at 0.001 µM: 4510 MFI
- pSTAT3 (MFI) in monocytes at 0.01 µM: 4360 MFI
- pSTAT3 (MFI) in monocytes at 0.1 µM: 4280 MFI
- pSTAT3 (MFI) in monocytes at 1 µM: 4640 MFI
- pSTAT3 (MFI) in monocytes at 10 µM: 4840 MFI
- pSTAT3 (MFI) in monocytes at 100 µM: 4880 MFI

Now from value to binder:

- pSTAT3 (MFI) in CD4 T cells at 0.0001 µM: 13200 MFI
- pSTAT3 (MFI) in CD4 T cells at 0.001 µM: 13900 MFI
- pSTAT3 (MFI) in CD4 T cells at 0.01 µM: 12800 MFI
- pSTAT3 (MFI) in CD4 T cells at 0.1 µM: 13600 MFI
- pSTAT3 (MFI) in CD4 T cells at 1 µM: 13000 MFI
- pSTAT3 (MFI) in CD4 T cells at 10 µM: 11800 MFI
- pSTAT3 (MFI) in CD4 T cells at 100 µM: 10200 MFI
- pSTAT3 (MFI) in CD8 T cells at 0.0001 µM: 7960 MFI
- pSTAT3 (MFI) in CD8 T cells at 0.001 µM: 8500 MFI
- pSTAT3 (MFI) in CD8 T cells at 0.01 µM: 7660 MFI
- pSTAT3 (MFI) in CD8 T cells at 0.1 µM: 8160 MFI
- pSTAT3 (MFI) in CD8 T cells at 1 µM: 7720 MFI
- pSTAT3 (MFI) in CD8 T cells at 10 µM: 8300 MFI
- pSTAT3 (MFI) in CD8 T cells at 100 µM: 7000 MFI
- pSTAT3 (MFI) in monocytes at 0.0001 µM: 4220 MFI
- pSTAT3 (MFI) in monocytes at 0.001 µM: 4680 MFI
- pSTAT3 (MFI) in monocytes at 0.01 µM: 4560 MFI
- pSTAT3 (MFI) in monocytes at 0.1 µM: 4470 MFI
- pSTAT3 (MFI) in monocytes at 1 µM: 4750 MFI
- pSTAT3 (MFI) in monocytes at 10 µM: 4890 MFI
- pSTAT3 (MFI) in monocytes at 100 µM: 4730 MFI
B2: hIL10Ra_VHH14-hIL2Rg_VHH19, linker GGSGGS, tag his (bispecific antibody, not shown: small tags and cut ends)
chain: QVQLQESGGGSVQAGGSLRLSCGASGYTYSSYCMGWFRQVPGKEREGVAVIDSDGSTSYADSVKGRFTISKDNGKNTLYLQMNSLKPEDTAMYYCAADLGHYRPPCGVLYLGMDYWGKGTQVTVSSGGSGGSQVQLQESGGGSVQAGGSLRLSCTASGFTFDDREMNWYRQAPGNECELVSTISSDGSTYYADSVKGRFTISQDNAKNTVYLQMDSVKPEDTAVYYCAADFMIAIQAPGAGCWGQGTQVTVSS

- pSTAT3 (MFI) in CD4 T cells at 0.0001 µM: 12200 MFI
- pSTAT3 (MFI) in CD4 T cells at 0.001 µM: 12900 MFI
- pSTAT3 (MFI) in CD4 T cells at 0.01 µM: 12500 MFI
- pSTAT3 (MFI) in CD4 T cells at 0.1 µM: 11000 MFI
- pSTAT3 (MFI) in CD4 T cells at 1 µM: 12100 MFI
- pSTAT3 (MFI) in CD4 T cells at 10 µM: 11800 MFI
- pSTAT3 (MFI) in CD4 T cells at 100 µM: 9040 MFI
- pSTAT3 (MFI) in CD8 T cells at 0.0001 µM: 7380 MFI
- pSTAT3 (MFI) in CD8 T cells at 0.001 µM: 7740 MFI
- pSTAT3 (MFI) in CD8 T cells at 0.01 µM: 7800 MFI
- pSTAT3 (MFI) in CD8 T cells at 0.1 µM: 6780 MFI
- pSTAT3 (MFI) in CD8 T cells at 1 µM: 7720 MFI
- pSTAT3 (MFI) in CD8 T cells at 10 µM: 7490 MFI
- pSTAT3 (MFI) in CD8 T cells at 100 µM: 6200 MFI
- pSTAT3 (MFI) in monocytes at 0.0001 µM: 3970 MFI
- pSTAT3 (MFI) in monocytes at 0.001 µM: 4600 MFI
- pSTAT3 (MFI) in monocytes at 0.01 µM: 4420 MFI
- pSTAT3 (MFI) in monocytes at 0.1 µM: 4420 MFI
- pSTAT3 (MFI) in monocytes at 1 µM: 4480 MFI
- pSTAT3 (MFI) in monocytes at 10 µM: 4330 MFI
- pSTAT3 (MFI) in monocytes at 100 µM: 4140 MFI
B3: hIL10Ra_VHH14-hIL2Rg_VHH19, no linker, tag his (bispecific antibody, not shown: small tags and cut ends)
chain: QVQLQESGGGSVQAGGSLRLSCGASGYTYSSYCMGWFRQVPGKEREGVAVIDSDGSTSYADSVKGRFTISKDNGKNTLYLQMNSLKPEDTAMYYCAADLGHYRPPCGVLYLGMDYWGKGTQVTVSSQVQLQESGGGSVQAGGSLRLSCTASGFTFDDREMNWYRQAPGNECELVSTISSDGSTYYADSVKGRFTISQDNAKNTVYLQMDSVKPEDTAVYYCAADFMIAIQAPGAGCWGQGTQVTVSS

- pSTAT3 (MFI) in CD4 T cells at 0.0001 µM: 11700 MFI
- pSTAT3 (MFI) in CD4 T cells at 0.001 µM: 12800 MFI
- pSTAT3 (MFI) in CD4 T cells at 0.01 µM: 13600 MFI
- pSTAT3 (MFI) in CD4 T cells at 0.1 µM: 10900 MFI
- pSTAT3 (MFI) in CD4 T cells at 1 µM: 12900 MFI
- pSTAT3 (MFI) in CD4 T cells at 10 µM: 12600 MFI
- pSTAT3 (MFI) in CD4 T cells at 100 µM: 11600 MFI
- pSTAT3 (MFI) in CD8 T cells at 0.0001 µM: 7400 MFI
- pSTAT3 (MFI) in CD8 T cells at 0.001 µM: 8110 MFI
- pSTAT3 (MFI) in CD8 T cells at 0.01 µM: 8110 MFI
- pSTAT3 (MFI) in CD8 T cells at 0.1 µM: 7100 MFI
- pSTAT3 (MFI) in CD8 T cells at 1 µM: 8200 MFI
- pSTAT3 (MFI) in CD8 T cells at 10 µM: 8410 MFI
- pSTAT3 (MFI) in CD8 T cells at 100 µM: 7900 MFI
- pSTAT3 (MFI) in monocytes at 0.0001 µM: 4040 MFI
- pSTAT3 (MFI) in monocytes at 0.001 µM: 4820 MFI
- pSTAT3 (MFI) in monocytes at 0.01 µM: 4010 MFI
- pSTAT3 (MFI) in monocytes at 0.1 µM: 4430 MFI
- pSTAT3 (MFI) in monocytes at 1 µM: 4790 MFI
- pSTAT3 (MFI) in monocytes at 10 µM: 4930 MFI
- pSTAT3 (MFI) in monocytes at 100 µM: 4930 MFI
B5: hIL10Ra_VHH14-hIL2Rg_VHH19, linker GS, tag his (bispecific antibody, not shown: small tags and cut ends)
chain: QVQLQESGGGSVQAGGSLRLSCGASGYTYSSYCMGWFRQVPGKEREGVAVIDSDGSTSYADSVKGRFTISKDNGKNTLYLQMNSLKPEDTAMYYCAADLGHYRPPCGVLYLGMDYWGKGTQVTVSSGSQVQLQESGGGSVQAGGSLRLSCTASGFTFDDREMNWYRQAPGNECELVSTISSDGSTYYADSVKGRFTISQDNAKNTVYLQMDSVKPEDTAVYYCAADFMIAIQAPGAGCWGQGTQVTVSS
